± gives the uncertainty stated by the source.
B1: FERM and PDZ domain-containing protein 4, residues 75 to 154; numbered along this chain, Q14CM0 (parent)
chain: APRKVEMRRDPVLGFGFVAGSEKPVVVRSVTPGGPSEGKLIPGDQIVMINDEPVSAAPRERVIDLVRSCKESILLTVIQP

Variants of: B1
Assay: abundance fitness (aPCA) (normalised: wild type 0, dead -1); higher = more abundant; growth selection in yeast, the domain comes from the species named
Settings: Homo sapiens
With P80G the abundance fitness was -0.074 ± 0.036.
Variant P80A has an abundance fitness of -0.086 ± 0.033.
Work on P80E yielded an abundance fitness of -0.164 ± 0.053.
P80M gave an abundance fitness of -0.181 ± 0.048.
Work on P80R yielded an abundance fitness of -0.146 ± 0.04.
Variant P80N has an abundance fitness of -0.058 ± 0.085.
P80C gave an abundance fitness of -0.157 ± 0.11.
For P80K, the abundance fitness was -0.138 ± 0.054.
P80I showed an abundance fitness of -0.413 ± 0.11.
P80Y showed an abundance fitness of -0.356 ± 0.07.
In the case of P80F, the abundance fitness is reported as -0.387 ± 0.13.
With P80S the abundance fitness was -0.066 ± 0.028.
Variant P80V has an abundance fitness of -0.23 ± 0.039.
Work on P80Q yielded an abundance fitness of 0 ± 0.05.
For P80W, the abundance fitness was -0.403 ± 0.064.
In the case of P80T, the abundance fitness is reported as -0.066 ± 0.033.
P80H gave an abundance fitness of -0.165 ± 0.066.
For P80D, the abundance fitness was -0.28 ± 0.11.
P80L gave an abundance fitness of -0.387 ± 0.042.
Work on I78N yielded an abundance fitness of -0.049 ± 0.033.
Variant I78T has an abundance fitness of 0.037 ± 0.024.
I78S showed an abundance fitness of 0.01 ± 0.022.
I78W gave an abundance fitness of -0.063 ± 0.022.
In the case of I78G, the abundance fitness is reported as -0.079 ± 0.019.
Variant I78L has an abundance fitness of -0.024 ± 0.02.
For I78K, the abundance fitness was 0.036 ± 0.027.
For I78H, the abundance fitness was -0.015 ± 0.036.
Work on I78A yielded an abundance fitness of 0.028 ± 0.021.
I78M showed an abundance fitness of 0.022 ± 0.025.
I78R gave an abundance fitness of 0.005 ± 0.019.
Variant I78C has an abundance fitness of -0.029 ± 0.027.
In the case of I78F, the abundance fitness is reported as -0.042 ± 0.031.
I78P showed an abundance fitness of -0.569 ± 0.032.
For I78Q, the abundance fitness was 0.025 ± 0.024.
With I78E the abundance fitness was 0.044 ± 0.023.
Variant I78Y has an abundance fitness of -0.053 ± 0.033.
With T76Q the abundance fitness was -0.095 ± 0.039.
T76N showed an abundance fitness of 0.002 ± 0.074.
With T76M the abundance fitness was -0.154 ± 0.04.
T76W gave an abundance fitness of -0.18 ± 0.033.
Variant T76D has an abundance fitness of -0.073 ± 0.055.
In the case of T76L, the abundance fitness is reported as -0.163 ± 0.034.
T76I showed an abundance fitness of -0.156 ± 0.052.
For T76P, the abundance fitness was -0.639 ± 0.081.
T76K gave an abundance fitness of -0.036 ± 0.04.
T76H gave an abundance fitness of -0.05 ± 0.062.
Variant T76Y has an abundance fitness of -0.005 ± 0.059.
With T76R the abundance fitness was -0.058 ± 0.029.
Work on T76V yielded an abundance fitness of -0.133 ± 0.031.
With T76E the abundance fitness was -0.025 ± 0.04.
Variant T76S has an abundance fitness of -0.047 ± 0.032.
In the case of V77I, the abundance fitness is reported as -0.098 ± 0.032.
V77G gave an abundance fitness of -0.653 ± 0.023.
For V77C, the abundance fitness was -0.07 ± 0.029.
V77M showed an abundance fitness of -0.475 ± 0.031.
V77R showed an abundance fitness of -0.728 ± 0.025.
With V77Y the abundance fitness was -0.815 ± 0.078.
In the case of V77K, the abundance fitness is reported as -0.523 ± 0.033.
With V77S the abundance fitness was -0.655 ± 0.03.
With V77T the abundance fitness was -0.231 ± 0.028.
Variant V77A has an abundance fitness of -0.259 ± 0.023.
V77W showed an abundance fitness of -0.981 ± 0.041.
With V77D the abundance fitness was -0.658 ± 0.044.
V77H gave an abundance fitness of -0.681 ± 0.056.
Variant V77L has an abundance fitness of -0.105 ± 0.021.
Q79T gave an abundance fitness of 0.028 ± 0.024.
For Q79S, the abundance fitness was 0.022 ± 0.022.
In the case of Q79C, the abundance fitness is reported as 0.012 ± 0.028.
With Q79Y the abundance fitness was -0.09 ± 0.033.
Q79A showed an abundance fitness of 0.035 ± 0.022.
Work on Q79I yielded an abundance fitness of -0.425 ± 0.039.
Q79G gave an abundance fitness of 0.03 ± 0.019.
Q79V gave an abundance fitness of -0.236 ± 0.021.
For Q79L, the abundance fitness was -0.165 ± 0.022.
Q79R showed an abundance fitness of 0.074 ± 0.018.
Q79H showed an abundance fitness of -0.027 ± 0.032.
With Q79W the abundance fitness was -0.233 ± 0.023.
With Q79D the abundance fitness was -0.002 ± 0.028.
For Q79K, the abundance fitness was -0.029 ± 0.027.
In the case of Q79P, the abundance fitness is reported as -0.019 ± 0.03.
With Q79N the abundance fitness was -0.045 ± 0.033.
Work on Q79F yielded an abundance fitness of -0.262 ± 0.034.
For Q79E, the abundance fitness was -0.017 ± 0.024.

Source: the Human Domainome abundance scans (Beltran et al. 2025)
